Data published in US20090023152A1 (published 2009).

T1: RFX5 (human, UniProt P48382 2-616)
T1 construct: also called RFX5 subunit of RFX
T1 sequence (looked up): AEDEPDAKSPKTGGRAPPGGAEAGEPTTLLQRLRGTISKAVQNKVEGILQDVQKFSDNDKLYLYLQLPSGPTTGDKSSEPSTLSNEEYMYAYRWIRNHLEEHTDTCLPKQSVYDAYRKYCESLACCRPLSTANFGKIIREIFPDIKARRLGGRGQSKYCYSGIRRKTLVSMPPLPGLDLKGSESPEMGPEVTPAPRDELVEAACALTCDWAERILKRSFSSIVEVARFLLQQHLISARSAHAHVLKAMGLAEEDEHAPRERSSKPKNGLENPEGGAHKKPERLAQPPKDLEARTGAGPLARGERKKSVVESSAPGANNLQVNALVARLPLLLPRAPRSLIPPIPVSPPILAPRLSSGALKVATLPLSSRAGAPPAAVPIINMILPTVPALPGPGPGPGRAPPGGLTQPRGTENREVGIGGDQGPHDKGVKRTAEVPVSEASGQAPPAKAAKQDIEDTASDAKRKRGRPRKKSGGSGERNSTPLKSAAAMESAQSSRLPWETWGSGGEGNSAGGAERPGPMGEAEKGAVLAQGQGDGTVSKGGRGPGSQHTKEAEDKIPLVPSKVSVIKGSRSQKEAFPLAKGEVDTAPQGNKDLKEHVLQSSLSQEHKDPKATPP

B1: RFXAP (other, human, UniProt O00287 1-272, looked up)
chain: MEAQGVAEGAGPGAASGVPHPAALAPAAAPTLAPASVAAAASQFTLLVMQPCAGQDEAAAPGGSVGAGKPVRYLCEGAGDGEEEAGEDEADLLDTSDPPGGGESAASLEDLEDEETHSGGEGSSGGARRRGSGGGSMSKTCTYEGCSETTSQVAKQRKPWMCKKHRNKMYKDKYKKKKSDQALNCGGTASTGSAGNVKLEESADNILSIVKQRTGSFGDRPARPTLLEQVLNQKRLSLLRSPEVVQFLQKQQQLLNQQVLEQRQQQFPGTSM
notes: also called RFXAP subunit of RFX
B2: FLAG-RFXANK (other)
chain: DYKDDDDKMELTQPAEDLIQTQQTPASELGDPEDPGEEAADGSDTVVLSLFPCTPEPVNPEPDASVSSPQAGSSLKHSTTLTNRQRGNEVSALPATLDSLSIHQLAAQGELDQLKEHLRKGDNLVNKPDERGFTPLIWASAFGEIETVRFLLEWGADPHILAKERESALSLASTGGYTDIVGLLLERDVDINIYDWNGGTPLLYAVRGNHVKCVEALLARGADLTTEADSGYTPMDLAVALGYRKVQQVIENHILKLFQSNLVPADPE
notes: In vitro translated

Legend:
[1] = molecular target: MHC-II enhanceosome assembled on the DRA promoter fragment (human) (UniProt P48382); test: promoter pull-down from crude cell extracts, immunoblot
[2] = molecular target: T1, RFX5; test: EMSA supershift of co-translated subunits on X box probe
[3] = molecular target: B1; test: as above

| Molecule | percent of the CIITA recruited [1] [%] | binding result [2] | binding result [3] |
| --- | --- | --- | --- |
| CIITA (wild type) (from UniProt P33076 1-1130) | < 1 | – | – |
| B1 | – | binds | – |
| B2 | – | binds | binds |
